Two molecules from US20110117113A1, “IMMUNOGLOBULIN SINGLE VARIABLE DOMAIN DIRECTED AGAINST HUMAN CXCR4 AND OTHER CELL ASSOCIATED PROTEINS AND METHODS TO GENERATE THEM” (priority 2009, published 2011) can be followed below.

Experiment [1] addresses T1, CXCR4 (Homo sapiens, UniProt P61073).
T1 construct: expressed in transfected cells; host or cells: HEK293T, transient; membrane fraction
Kind of experiment: Competition binding, displacement of [^125I]-CXCL12 on membranes from HEK293T cells transiently expressing CXCR4. How it is done: Iodine incorporation and specific activity were controlled via precipitation of the protein with trichloroacetic acid.
Competition binding assay—Periplasmic fractions were screened in a competition binding assay using membranes from HEK293T cells transiently expressing CXCR4. […] Membranes were then harvested over polyethylenimine (0.5%)-treated Whatman GF/C filter plates and washed three times with ice cold binding buffer containing 500 mM NaCl. Plates were counted by liquid scintillation.
Characterization of Nanobody binding to CXCR4—Following purification, receptor binding to characteristics for 238D2 and 238D4 were investigated on cell membranes from HEK293T cells transiently expressing CXCR4.
Data analysis and presentation—Data are presented as mean±S.E.M. from n independent experiments. Concentration response curves (E/[A] curves) were fitted to the Hill equation using an iterative, least-squares method (GraphPad Prism 4.0, GraphPad Software, San Diego, Calif.) to provide maximal inhibitory effects (Imax), half maximal effective (EC50) or inhibitory concentrations (IC50). Competition binding affinities and functional antagonist affinities (Ki) were calculated using the Cheng and Prusoff equation Ki=IC50/(1+[agonist]/EC50) (Cheng & Prusoff, 1973).

For experiment [2], the target named is T2, CXCR4 (N119A) (Homo sapiens, UniProt P61073, N119A).
T2 construct: expressed in transfected cells; host or cells: HEK293T, transient; membranes in A4, whole cells in A5
T2 sequence (P61073 whole entry N119A): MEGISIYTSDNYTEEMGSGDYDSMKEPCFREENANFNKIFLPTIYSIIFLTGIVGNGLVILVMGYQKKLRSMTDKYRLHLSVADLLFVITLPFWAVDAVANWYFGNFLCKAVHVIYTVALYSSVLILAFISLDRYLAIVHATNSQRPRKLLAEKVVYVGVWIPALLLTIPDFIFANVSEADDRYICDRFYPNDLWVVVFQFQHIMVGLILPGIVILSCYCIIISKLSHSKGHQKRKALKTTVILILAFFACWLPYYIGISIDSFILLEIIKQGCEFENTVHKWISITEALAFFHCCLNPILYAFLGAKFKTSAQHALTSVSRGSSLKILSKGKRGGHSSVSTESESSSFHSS
Kind of experiment: Competition binding with [125I]-CXCL12 on constitutively active CXCR4 mutant N119A. The settings on record: competition with [125I]-CXCL12 (40 pM). The procedure: Competition binding assay—Periplasmic fractions were screened in a competition binding assay using membranes from HEK293T cells transiently expressing CXCR4. In short, periplasmic extracts (1:10) or ligands were pre-incubated with membranes in binding buffer (50 mM HEPES (pH 7.4), 1 mM CaCl2, 5 mM MgCl2, 100 mM NaCl, 0.5% bovine serum albumin) supplemented with 0.5% BSA for 1 h at 22° C. before the addition of [^125I]-CXCL12 (40 pM) or [^125I]-238D2 (3 nM) or [^125I]-238D4 (3 nM) for additional 2 h at 22° C. […] Membranes were then harvested over polyethylenimine (0.5%)-treated Whatman GF/C filter plates and washed three times with ice cold binding buffer containing 500 mM NaCl. Plates were counted by liquid scintillation.
CXCR4—specific Nanobodies behave as neutral antagonists or inverse agonists on constitutively active mutants of CXCR4—The CXCR4—specific monovalent Nanobodies 238D2 and 238D4 as well as their bivalent fusion products L3 and L8 were investigated on the constitutively active CXCR4 mutant N119A (equivalent to N3.35A in the Ballestros-Weinstein numbering of class A GPCRs). […] Despite of the large number of CAMs for other class A GPCRs and further efforts to generate additional CAMs for CXCR4 (Berchiche et al., 2007), the N119 mutants of CXCR4 remain the only known CAMs for this receptor. […] Methods: Preparation of membranes and competition binding experiments with [125I]-CXCL12 (40 pM) were performed as described before for wild type CXCR4 (vide supra).

Experiment [3] addresses T3, CXCR4 mutant 3 (D187V) (Homo sapiens, UniProt P61073, D187V).
T3 construct: expressed in transfected cells; host or cells: Hek293T, transient, pcDNA3.1
Kind of experiment: Footprint assay, flow cytometry binding to CXCR4 D187V on Hek293T cells. As to conditions: Myc-tag detection, 10 nM and 100 nM Nanobody, average n = 3, relative to hCXCR4. The source says:
(§1) Based on the data from example 1.8, we introduced 3 single point-mutations in ECL2 of CXCR4 that allowed to discriminate between 238D2 and 238D4-like epitopes: V196E (specifically disturbing D2 binding)-SEQ ID NO: 20, D187V (specifically disturbing D4 binding)-SEQ ID NO: 21, F189V (disturbing binding of both D2 and D4)-SEQ ID NO: 19. […] For the epitope mapping, transient transfections of the three CXCR4 mutants and wildtype human CXCR4 in the pcDNA3.1 vector were done in Hek293T cells, after which Nanobody binding of different families was assessed by flow cytometry using detection of the Myc-tag, followed by secondary anti-mouse PE. Two concentrations of Nanobody were tested, 10 nM and 100 nM, and experiment was repeated with essentially the same results. Binding of the Nanobodies to HEK293T hCXCR4 cells was used for normalization using the following formulas:
(§2) Percentage of binding to the mutant receptors was calculated for each Nanobody concentration, and a position was considered as critical when less than 25% residual binding (average of n=3) was observed (Table C-5). […] Nanobodies could be grouped according to their different binding patterns, not only in “238D2-like” or “epitope A binders” and “238D4-like” or “epitope B binders” but also into other new groups.

The target of experiment [4] is T4, CXCR4 mutant 1 (F189V) (Homo sapiens, UniProt P61073, F189V).
T4 construct: expressed in transfected cells; host or cells: Hek293T, transient, pcDNA3.1
T4 sequence (P61073 whole entry F189V): as the sequence (P61073 whole entry N119A) above, with A119N, F189V counted along it
Briefly: Footprint assay, flow cytometry binding to CXCR4 F189V on Hek293T cells. As to conditions: Myc-tag detection, 10 nM and 100 nM Nanobody, average n = 3, relative to hCXCR4.
Source text: as §1, §2
A general note: A flow cytometer gives signals particle by particle.

The target of experiment [5] is T5, wildtype human CXCR4 (pcDNA3.1-CXCR4, expressed in HEK293T) (human, UniProt P61073 1-352).
T5 construct: whole, on cells; also called hCXCR4; HEK293T CXCR4
T5 sequence (P61073 whole entry): as the sequence (P61073 whole entry N119A) above, with A119N counted along it
Briefly: competition with [125I]-238D2, HEK293T-CXCR4 membranes.

Entries after “also recorded” stand apart in the source; their conditions may differ.

T1 sequence (P61073 whole entry): as the sequence (P61073 whole entry N119A) above, with A119N counted along it
T3 sequence (P61073 whole entry D187V): as the sequence (P61073 whole entry N119A) above, with A119N, D187V counted along it

B1: 238D2: monovalent anti CXCR4 Nanobody, SEQ ID NO: 2 (protein)
VHH: EVQLVESGGGLVQTGGSLRLSCAASGFTFSSYAMSWVRQAPGKGLEWVSGIKSSGDSTRYAGSVKGRFTISRDNAKNMLYLQMYSLKPEDTAVYYCAKSRVSRTGLYTYDNRGQGTQVTVSS
modifications: Nanobody
With B1, in experiment [1] (in words, [^125I]-CXCL12 displacement), the “functional antagonist affinities (Ki) to CXCR4” value is reported as “low nanomolar range”. The “[^125I]-CXCL12 Displacem. (%)” value in experiment [1] (maximal displacement, membranes from HEK293T cells transiently expressing CXCR4, mean ± S.E.M.) was found to be 93 ± 5%. Further, the “displacement of specifically bound [^125I]-CXCL12 (in words)” value in experiment [1] (membranes from HEK293T cells transiently expressing CXCR4) is reported as “strongly displacing; also recorded: fully displace”. Besides, the “[^125I]-CXCL12 pKi” value in experiment [1] (receptor affinity, membranes from HEK293T cells transiently expressing CXCR4, mean ± S.E.M.) came to 8.01 ± 0.12. The “binding affinities to CXCR4 (N119A) compared to wild type (in words)” value in experiment [2] was “somewhat less compared to the wild type receptor”. Further, the “binding to CXCR4 (N119A) (in words)” value in experiment [2] (highest nanobody test concentration 2 μM) is reported as “able to bind to CXCR4 (N119A); also recorded: clearly bind to the mutant receptor”. Further, the “HEK293T D187V binding” value in experiment [3] was “+ (>75% binding to mutant rel. to hCXCR4)”. For the same molecule, the “HEK293T F189V binding” value in experiment [4] is “− (<=25% binding to mutant rel. to hCXCR4)”.

B2: Nanobody 238D4 (VHH)
VHH: EVQLMESGGGLVQAGGSLRLSCAASGRTFNNYAMGWFRRAPGKEREFVAAITRSGVRSGVSAIYGDSVKDRFTISRDNAKNTLYLQMNSLKPEDTAVYTCAASAIGSGALRRFEYDYSGQGTQVTVSS
B2 came in with a pKi in experiment [5] of 8.8 pKi.
